Patent US20180044434A1

T1: Ala mutant of TA0096, SEQ ID NO: 32
T1 sequence (peptide): EENMDAQWMQDEMEIGY

T2: Ala mutant having 3-amino acid substitution, SEQ ID NO: 46
T2 sequence (peptide): EENMDDAAAQDEMEIGY


Experiments:
[1] = target: T1, Ala mutant of TA0096, SEQ ID NO: 32; test: ELISA, coated peptide
[2] = target: T2, Ala mutant having 3-amino acid substitution, SEQ ID NO: 46; test: ELISA, coated peptide

Binder	OD 490/630 nm [1]	OD 490/630 nm [2]
A11 (antibody, V domains shown) VH: AVTLDESGGGLQTPGGALSLVCKASGFDFSSYGMGWMRQAPGKGLEYVAAIRNDGSWTGYGAAVKGHATISRDNGQSTVRLQLNNLRAEDTGTYYCAKTTGSRGGSIDAWGHGTEVIVS VL: ASTQPSSVSANLGGTVEITCSGGGRYYYGWYQQKSPGSAPVTVIYANDKRPSDIPSRFSGSKSGSTGTLTITGVQAEDEAVYFCGSAETSSYVFGAGTTLTVL	0.628	
G8 (antibody, V domains shown) VH: AVTLDESGGGLQTPGGALSLVCKASGFTFSTYAMGWMRQAPGKGLEYVAAIRNDGSWTGYGAAVKGRATILRDNGQSTVRLQLSNLRAEDTGTYYCAKYTGSSGGSIGAWGHGTEVIVS VL: ASTQPSSVSANLGGTVEITCSGGNRNYYYGWYQQKSPGSAPVTLIYANDKRPSNIPSRFSGSKSGSTGTLTITGVQAEDEAVYFCGTADTGKYVFGAGTTLTVL		0.178
E9 (antibody, V domains shown) VH: AVTLDESGGGLQTPGGTLSLVCKGSGFTFSSYGMGWMRQAPGKGLEYVAAIRNDGSWTGYGSAVKGRATISRDNGQSTVRLQLNNLRAEDTATYYCAKTSGSSGGSVDAWGHGTEVIVS VL: ASTQPSSVSANLGGTVEITCSGGGRYYYGWYQQKSPGSAPVTVIYANDKRPSDIPSRFSGSKSGSTGTLTITGVQAEDEAVYFCGSAETSSYVFGAGTTLTVL	0.177	
